T1: human EID-1 with an N-terminal V5-HIS6 tag (in p423CDN)
T1 chain: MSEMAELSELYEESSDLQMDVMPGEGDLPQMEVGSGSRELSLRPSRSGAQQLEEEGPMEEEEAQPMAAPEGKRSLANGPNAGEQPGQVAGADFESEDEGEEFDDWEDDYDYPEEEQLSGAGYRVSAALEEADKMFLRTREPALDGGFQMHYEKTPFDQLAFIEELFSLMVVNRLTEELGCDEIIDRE

T2: human EID-1 (SEQ ID NO:4) expressed in E. coli as an N-terminal HIS6 fusion
T2 chain: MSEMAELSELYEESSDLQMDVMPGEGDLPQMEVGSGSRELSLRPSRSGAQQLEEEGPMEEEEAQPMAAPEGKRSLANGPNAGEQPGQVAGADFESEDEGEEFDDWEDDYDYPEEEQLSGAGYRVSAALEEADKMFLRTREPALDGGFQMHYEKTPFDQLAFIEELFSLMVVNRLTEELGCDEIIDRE

B1: human DYRK2 (SEQ ID NO:6) with an N-terminal HIS6-tag (protein)
chain: MNDHLHVGSHAHGQIQVQQLFEDNSNKRTVLTTQPNGLTTVGKTGLPVVPERQLDSIHRRQGSSTSLKSMEGMGKVKATPMTPEQAMKQYMQKLTAFEHHEIFSYPEIYFLGLNAKKRQGMTGGPNNGGYDDDQGSYVQVPHDHVAYRYEVLKVIGKGSFGQVVKAYDHKVHQHVALKMVRNEKRFHRQAAEEIRILEHLRKQDKDNTMNVIHMLENFTFRNHICMTFELLSMNLYELIKKNKFQGFSLPLVRKFAHSILQCLDALHKNRIIHCDLKPENILLKQQGRSGIKVIDFGSSCYEHQRVYTYIQSRFYRAPEVILGARYGMPIDMWSLGCILAELLTGYPLLPGEDEGDQLACMIELLGMPSQKLLDASKRAKNFVSSKGYPRYCTVTTLSDGSVVLNGGRSRRGKLRGPPESREWGNALKGCDDPLFLDFLKQCLEWDPAVRMTPGQALRHPWLRRRLPKPPTGEKTSVKRITESTGAITSISKLPPPSSSASKLRTNLAQMTDANGNIQQRTVLPKLVS
B2: human DYRK3 catalytic domain (amino acids 142-526 of SEQ ID NO:2) with an N-terminal GST-tag and C-terminal HIS6-tag (protein)
chain: PEQALKQYKHHLTAYEKLEIINYPEIYFVGPNAKKRHGVIGGPNNGGYDDADGAYIHVPRDHLAYRYEVLKIIGKGSFGQVARVYDHKLRQYVALKMVRNEKRFHRQAAEEIRILEHLKKQDKTGSMNVIHMLESFTFRNHVCMAFELLSIDLYELIKKNKFQGFSVQLVRKFAQSILQSLDALHKNKIIHCDLKPENILLKHHGRSSTKVIDFGSSCFEYQKLYTYIQSRFYRAPEIILGSRYSTPIDIWSFGCILAELLTGQPLFPGEDEGDQLACMMELLGMPPPKLLEQSKRAKYFINSKGIPRYCSVTTQADGRVVLVGGRSRRGKKRGPPGSKDWGTALKGCDDYLFIEFLKRCLHWDPSARLTPAQALRHPWISKSVP
B3: recombinant hDYRK3 (SEQ ID NO: 2) as used in Example 4 (protein)
chain: MGGTARGPGRKDAGPPGAGLPPQQRRLGDGVDTFMMIDETKCPPCSNVLCNPSEPPPPRRLNMTTEQFTGDHTQHFLDGGEMKVEQLFQEFGNRKSNTIQSDGISDSEKCSPTVSQGKSSDCLNTVKSNSSSKAPKVVPLTPEQALKQYKHHLTAYEKLEIINYPEIYFVGPNAKKRHGVIGGPNNGGYDDADGAYIHVPRDHLAYRYEVLKIIGKGSFGQVARVYDHKLRQYVALKMVRNEKRFHRQAAEEIRILEHLKKQDKTGSMNVIHMLESFTFRNHVCMAFELLSIDLYELIKKNKFQGFSVQLVRKFAQSILQSLDALHKNKIIHCDLKPENILLKHHGRSSTKVIDFGSSCFEYQKLYTYIQSRFYRAPEIILGSRYSTPIDIWSFGCILAELLTGQPLFPGEDEGDQLACMMELLGMPPPKLLEQSKRAKYFINSKGIPRYCSVTTQADGRVVLVGGRSRRGKKRGPPGSKDWGTALKGCDDYLFIEFLKRCLHWDPSARLTPAQALRHPWISKSVPRPLTTIDKVSGKRVVNPASAFQGLGSKLPPVVGIANKLKANLMSETNGSIPLCSVLPKLIS

Assays:
[1] = biological target: T1, human EID-1 with an N-terminal V5-HIS6 …
[2] = biological target: T2, human EID-1 (SEQ ID NO:4) expressed in …

Protein	in vitro kinase assay with gamma-33P-ATP, radioactive band on Phosphorimager [1]	in vitro kinase assay with 33P-ATP, then LC-ES MS/MS of the Asp-N digest [2]
B1	There is a radioactive band that migrates at the same position as the EID-1 protein in the western blot while this band is absent in the vector alone lane	
B2	There is a radioactive band that migrates at the same position as the EID-1 protein in the western blot while this band is absent in the vector alone lane	
B3		there was a radioactive band that migrated at the same position as the EID-1 protein following electrophoresis
